# Data taken from paper PMC7666158.
# How the values were obtained:
# [1] = molecular target: JNK1-dc20 (JNK1 with the C-terminal 20 residues truncated) (human) (UniProt P45983); test: fluorescence polarisation; competitive: 50 nM CF-evJIP with JNK1 at ~60–80% complex, titrated with unlabeled competitor; 20 mM Tris pH 8.0, 100 mM NaCl, 0.05% Brij35P, 2 mM TCEP; 384-well plates
# [2] = molecular target: CF-evJIP (carboxyfluorescein-labeled reporter docking peptide); test: fluorescence polarisation; direct titration: 50 nM CF-evJIP, JNK1 concentration increased; 20 mM Tris pH 8.0, 100 mM NaCl, 0.05% Brij35P, 2 mM TCEP; 384-well plates
# [3] = molecular target: pp-p38 (double-phosphorylated, activated p38α) (human) (UniProt Q16539); test: competition in an in vitro kinase assay; 2 nM pp-p38, 2 µM MBP-ATF2 substrate, 3-fold dilution series of peptide from 1 mM; phospho-ATF2 dot blot; Ki = IC50/(1 + S/KM), KM 17.3 µM
Substance,Ki [3] [µM],further results
ATF2(19–100) Q34R/H47R (mutant construct of the FP assay of Fig. 2b) (from UniProt P15336-1 19-100) (domain or fragment),–,fold stronger binding than the wild type [1]: 100 fold
JNK1-dc20 (JNK1 where the C-terminal 20 residues are truncated) (from UniProt P45983 1-364) (enzyme),–,Kd [2]: 0.47 µM
MBP-c-Jun(1–78) K35E (domain or fragment),–,fold decrease in binding against the wild type [1]: 10 fold
SPFENEF peptide (ATF2 83–102) S90N (from UniProt P15336-1 83-102),7.5,–
SPFENEF peptide (ATF2 83–102) phospho-S90,820,–
"SPFENEF peptide (ATF2 83–102), WT",33.6,–
